Laboratory results taken from PMC2749940, “Kissing G Domains of MnmE Monitored by X-Ray Crystallography and Pulse Electron Paramagnetic Resonance Spectroscopy” (PLoS Biology, 2009).

T1: CtMnmE (Chlorobaculum tepidum, UniProt Q8KAS1)
T1 construct: gene mnmE; full length, N-terminal His-tag (pET14b, E. coli BL21-DE3) cut by thrombin; homodimer
T1 sequence (Q8KAS1 1-473): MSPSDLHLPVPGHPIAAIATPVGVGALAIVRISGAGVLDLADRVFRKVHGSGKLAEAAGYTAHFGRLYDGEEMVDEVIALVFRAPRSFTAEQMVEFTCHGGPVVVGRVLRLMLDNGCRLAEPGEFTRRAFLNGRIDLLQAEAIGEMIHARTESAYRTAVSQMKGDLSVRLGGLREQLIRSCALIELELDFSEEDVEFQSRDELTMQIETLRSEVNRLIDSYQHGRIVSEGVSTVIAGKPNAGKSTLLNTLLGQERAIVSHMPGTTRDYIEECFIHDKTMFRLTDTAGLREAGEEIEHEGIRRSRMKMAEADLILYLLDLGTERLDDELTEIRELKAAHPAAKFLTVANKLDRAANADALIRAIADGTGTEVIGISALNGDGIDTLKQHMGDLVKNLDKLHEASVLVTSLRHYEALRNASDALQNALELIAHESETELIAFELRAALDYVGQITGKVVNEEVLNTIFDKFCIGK

T2: NoMnmE (Nostoc sp. PCC 7120 = FACHB-418, UniProt Q8YN91)
T2 construct: gene mnmE; full length, N-terminal His-tag (pET14b, E. coli BL21-DE3) cut by thrombin; homodimer
T2 sequence (Q8YN91 1-459): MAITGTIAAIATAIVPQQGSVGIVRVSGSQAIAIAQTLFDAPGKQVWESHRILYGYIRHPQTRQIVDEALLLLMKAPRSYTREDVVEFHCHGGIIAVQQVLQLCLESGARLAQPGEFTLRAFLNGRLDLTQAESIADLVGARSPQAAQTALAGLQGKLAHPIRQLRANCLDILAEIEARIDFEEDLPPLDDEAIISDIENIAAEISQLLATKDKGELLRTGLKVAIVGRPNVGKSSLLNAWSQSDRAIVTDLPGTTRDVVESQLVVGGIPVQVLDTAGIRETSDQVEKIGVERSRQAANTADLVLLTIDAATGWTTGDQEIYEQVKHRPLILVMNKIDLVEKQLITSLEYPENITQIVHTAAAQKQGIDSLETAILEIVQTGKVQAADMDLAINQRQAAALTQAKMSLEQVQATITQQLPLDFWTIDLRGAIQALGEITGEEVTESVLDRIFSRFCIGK


Legend:
[1] = target: T1, CtMnmE; experiment: X-ray crystal structure (soak); assay type: binding; conditions: 5 mM 5-F-THF in cryoprotectant; N-terminal domain dimer interface; GDP also bound
[2] = target: T2, NoMnmE; experiment: X-ray crystal structure; assay type: binding; conditions: copurified from E. coli; two sites in N-terminal domain dimer interface; GDP also bound
[3] = target: the molecule itself; experiment: crystal structure; full-length MnmE crystallised with K+, GDP and AlFx (only GDP found bound); hanging-drop vapour diffusion; homodimer by crystallographic symmetry
[4] = target: the molecule itself; experiment: pulse EPR (four-pulse DEER) of spin-labelled protein; 200–500 µM MTSSL-labelled protein in 100 mM KCl (or NaCl, RbCl, CsCl, NH4Cl), 50 mM Tris-HCl, 5 mM MgCl2 pH 7.4; apo, 1 mM GDP, 1 mM GppNHp or GDP-AlFx; measured at 50 K; distances between the two symmetry-related labels of the dimer

Molecule | binding result [4] | also measured
Nc1nc2c(c(=O)[nH]1)N(C=O)[C@@H](CNc1ccc(C(=O)N[C@@H](CCC(=O)O)C(=O)O)cc1)CN2 [5-F-THF, 5-formyl-tetrahydrofolate] | – | X-ray crystal structure (soak) [1]: in the crystal structure 5-F-THF is found in identical positions as in the NoMnmE·GDP-dimer; X-ray crystal structure [2]: two molecules of 5-formyl-tetrahydrofolate (5-F-THF) were identified in the structure of NoMnmE·GDP
Chlorobium tepidum MnmE (natural protein, UniProt Q8KAS1 1-473, looked up, MnmE of Chlorobium tepidum, full-length protomer, cloned into pET14b; Crystallised with GDP (grown with GDP-AlFx and K+) and with GppCp; homodimer through the N-terminal domains; also called CtMnmE; CtMnmE·GDP; source: E. coli BL21-DE3, purified (Ni-NTA, thrombin cleavage of the His-tag, gel filtration on Superdex 200); not shown: His tag, N-terminal, cleaved) MSPSDLHLPVPGHPIAAIATPVGVGALAIVRISGAGVLDLADRVFRKVHGSGKLAEAAGYTAHFGRLYDGEEMVDEVIALVFRAPRSFTAEQMVEFTCHGGPVVVGRVLRLMLDNGCRLAEPGEFTRRAFLNGRIDLLQAEAIGEMIHARTESAYRTAVSQMKGDLSVRLGGLREQLIRSCALIELELDFSEEDVEFQSRDELTMQIETLRSEVNRLIDSYQHGRIVSEGVSTVIAGKPNAGKSTLLNTLLGQERAIVSHMPGTTRDYIEECFIHDKTMFRLTDTAGLREAGEEIEHEGIRRSRMKMAEADLILYLLDLGTERLDDELTEIRELKAAHPAAKFLTVANKLDRAANADALIRAIADGTGTEVIGISALNGDGIDTLKQHMGDLVKNLDKLHEASVLVTSLRHYEALRNASDALQNALELIAHESETELIAFELRAALDYVGQITGKVVNEEVLNTIFDKFCIGK | – | binding result [3]: binds
E. coli MnmE-C451S E287R1 (Glu287 mutated to Cys, MTSSL-labelled) (natural protein, UniProt P25522 1-454, looked up, MTSSL spin label (R1 side chain) on the cysteine at 287, MnmE of E. coli, full length, Cys mutant in the C451S background; also called EcMnmE E287R1; source: purified, nucleotide-free) MSDNDTIVAQATPPGRGGVGILRISGFKAREVAETVLGKLPKPRYADYLPFKDADGSVLDQGIALWFPGPNSFTGEDVLELQGHGGPVILDLLLKRILTIPGLRIARPGEFSERAFLNDKLDLAQAEAIADLIDASSEQAARSALNSLQGAFSARVNHLVEALTHLRIYVEAAIDFPDEEIDFLSDGKIEAQLNDVIADLDAVRAEARQGSLLREGMKVVIAGRPNAGKSSLLNALAGREAAIVTDIAGTTRDVLREHIHIDGMPLHIIDTAGLREASDEVERIGICRAWQEIEQADRVLFMVDGTTTDAVDPAEIWPEFIARLPAKLPITVVRNKADITGETLGMSEVNGHALIRLSARTGEGVDVLRNHLKQSMGFDTNMEGGFLARRRHLQALEQAAEHLQQGKAQLLGAWAGELLAEELRLAQQNLSEITGEFTSDDLLGRIFSSFSIGK | binds | –
E. coli MnmE-C451S S278R1 (Ser278 mutated to Cys, MTSSL-labelled) (natural protein, UniProt P25522 1-454, looked up, MTSSL spin label (R1 side chain) on the cysteine at 278, MnmE of E. coli, full length, Cys mutant in the C451S background; source: purified, nucleotide-free) MSDNDTIVAQATPPGRGGVGILRISGFKAREVAETVLGKLPKPRYADYLPFKDADGSVLDQGIALWFPGPNSFTGEDVLELQGHGGPVILDLLLKRILTIPGLRIARPGEFSERAFLNDKLDLAQAEAIADLIDASSEQAARSALNSLQGAFSARVNHLVEALTHLRIYVEAAIDFPDEEIDFLSDGKIEAQLNDVIADLDAVRAEARQGSLLREGMKVVIAGRPNAGKSSLLNALAGREAAIVTDIAGTTRDVLREHIHIDGMPLHIIDTAGLREACDEVERIGIERAWQEIEQADRVLFMVDGTTTDAVDPAEIWPEFIARLPAKLPITVVRNKADITGETLGMSEVNGHALIRLSARTGEGVDVLRNHLKQSMGFDTNMEGGFLARRRHLQALEQAAEHLQQGKAQLLGAWAGELLAEELRLAQQNLSEITGEFTSDDLLGRIFSSFSIGK | binds | –
E. coli MnmE-C451S I105R1 (Ile105 mutated to Cys, MTSSL-labelled) (natural protein, UniProt P25522 1-454, looked up, MTSSL spin label (R1 side chain) on the cysteine at 105, MnmE of E. coli, full length, Cys mutant in the C451S background; source: purified, nucleotide-free) MSDNDTIVAQATPPGRGGVGILRISGFKAREVAETVLGKLPKPRYADYLPFKDADGSVLDQGIALWFPGPNSFTGEDVLELQGHGGPVILDLLLKRILTIPGLRCARPGEFSERAFLNDKLDLAQAEAIADLIDASSEQAARSALNSLQGAFSARVNHLVEALTHLRIYVEAAIDFPDEEIDFLSDGKIEAQLNDVIADLDAVRAEARQGSLLREGMKVVIAGRPNAGKSSLLNALAGREAAIVTDIAGTTRDVLREHIHIDGMPLHIIDTAGLREASDEVERIGIERAWQEIEQADRVLFMVDGTTTDAVDPAEIWPEFIARLPAKLPITVVRNKADITGETLGMSEVNGHALIRLSARTGEGVDVLRNHLKQSMGFDTNMEGGFLARRRHLQALEQAAEHLQQGKAQLLGAWAGELLAEELRLAQQNLSEITGEFTSDDLLGRIFSSFSIGK | binds | –
E. coli MnmE-C451S D366R1 (Asp366 mutated to Cys, MTSSL-labelled) (natural protein, UniProt P25522 1-454, looked up, MTSSL spin label (R1 side chain) on the cysteine at 366, MnmE of E. coli, full length, Cys mutant in the C451S background; source: purified, nucleotide-free) MSDNDTIVAQATPPGRGGVGILRISGFKAREVAETVLGKLPKPRYADYLPFKDADGSVLDQGIALWFPGPNSFTGEDVLELQGHGGPVILDLLLKRILTIPGLRIARPGEFSERAFLNDKLDLAQAEAIADLIDASSEQAARSALNSLQGAFSARVNHLVEALTHLRIYVEAAIDFPDEEIDFLSDGKIEAQLNDVIADLDAVRAEARQGSLLREGMKVVIAGRPNAGKSSLLNALAGREAAIVTDIAGTTRDVLREHIHIDGMPLHIIDTAGLREASDEVERIGIERAWQEIEQADRVLFMVDGTTTDAVDPAEIWPEFIARLPAKLPITVVRNKADITGETLGMSEVNGHALIRLSARTGEGVCVLRNHLKQSMGFDTNMEGGFLARRRHLQALEQAAEHLQQGKAQLLGAWAGELLAEELRLAQQNLSEITGEFTSDDLLGRIFSSFSIGK | binds | –
Nostoc sp. 7120 MnmE (natural protein, UniProt Q8YN91 1-459, looked up, MnmE of Nostoc sp; 7120, full-length protomer, cloned into pET14b; Crystallised with GDP (grown with GDP-AlFx and K+); 5-formyl-tetrahydrofolate was co-purified; also called NoMnmE; NoMnmE·GDP; source: E. coli BL21-DE3, purified (Ni-NTA, thrombin cleavage of the His-tag, gel filtration on Superdex 200); not shown: His tag, N-terminal, cleaved) MAITGTIAAIATAIVPQQGSVGIVRVSGSQAIAIAQTLFDAPGKQVWESHRILYGYIRHPQTRQIVDEALLLLMKAPRSYTREDVVEFHCHGGIIAVQQVLQLCLESGARLAQPGEFTLRAFLNGRLDLTQAESIADLVGARSPQAAQTALAGLQGKLAHPIRQLRANCLDILAEIEARIDFEEDLPPLDDEAIISDIENIAAEISQLLATKDKGELLRTGLKVAIVGRPNVGKSSLLNAWSQSDRAIVTDLPGTTRDVVESQLVVGGIPVQVLDTAGIRETSDQVEKIGVERSRQAANTADLVLLTIDAATGWTTGDQEIYEQVKHRPLILVMNKIDLVEKQLITSLEYPENITQIVHTAAAQKQGIDSLETAILEIVQTGKVQAADMDLAINQRQAAALTQAKMSLEQVQATITQQLPLDFWTIDLRGAIQALGEITGEEVTESVLDRIFSRFCIGK | – | binding result [3]: binds
